# Experimental data from patent US20250066477A1 (INHIBRX BIOSCIENCES, published 2025).
# T1: CD20 on Raji cells (UniProt P11836 1-297, limits assumed)
# T1 construct: whole, on cells
# T1 sequence (looked up): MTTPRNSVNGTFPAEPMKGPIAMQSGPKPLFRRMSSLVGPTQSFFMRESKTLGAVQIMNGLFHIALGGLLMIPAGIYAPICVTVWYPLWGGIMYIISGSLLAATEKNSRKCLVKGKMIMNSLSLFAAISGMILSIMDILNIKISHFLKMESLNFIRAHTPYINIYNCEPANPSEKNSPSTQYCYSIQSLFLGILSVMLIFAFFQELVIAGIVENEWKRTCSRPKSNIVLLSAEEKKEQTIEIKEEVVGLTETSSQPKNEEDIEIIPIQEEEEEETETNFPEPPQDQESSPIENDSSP
# Columns and labels:
# [1] = target: T2, human γδ TCR (Vγ9Vδ2) on human γδ T cells (human); experiment: flow cytometry on human PBMC gated on γδ TCR+ (Vγ9Vδ2) T cells, anti-human Fcγ A647
# T2 construct: whole, on cells; also called Vδ2+ γδ T cells; Vγ9Vδ2 T cells
# Description: (§1) The binding activity of a bispecific γδ TCR molecule that binds γδTCR and the representative target antigen CD20 (γδTCR×CD20) comprising anti-γδ VHH domain 1D7v9, an anti-CD20 VHH domain and a heterodimeric knob-in-hole Fc region (cx11498) was assessed by flow cytometry on Raji target cells expressing CD20 and Vγ9Vδ2 T cells. PBMCs and Raji cells were thawed and resuspended to 1.0×10\hat{ }6 cells/ml in FACS buffer. 100,000 PBMCs or Raji cells were seeded in a 96-well plate. Test articles were added at a final starting concentration of 50 nM and titrated across the plate 1:4. Cells were incubated with the antibody for 30 minutes at 4 C, spun down, and washed four times with FACS buffer. Cells were labeled with anti-human Fcγ-A647 (Jackson ImmunoResearch) and PBMCs were also labeled with anti-human δ TCR-FITC (Biolegend) in 50 uL of FACS for 30 minutes at 4 C. The plate was washed twice with FACS buffer, resuspended in FACS buffer and read on the IQue flow cytometer. The mean fluorescent intensity for anti-human Fcγ-A647 was calculated using onboard software and graphed using Graphpad Prism. The γδ TCR×antigen molecule bound to both antigen (CD20) expressing Raji cells (FIG. 7A) and V 9Vδ2 T cells (FIG. 7B) in a titration dependent manner.
# CD20 on Raji cells = target: T1, CD20 on Raji cells; experiment: flow cytometry on CD20-expressing Raji cells, anti-human Fcγ A647
# Description: as §1
# [2] = target: T3, CD33 on MOLM-13 and MV-411 cells (UniProt P20138 18-364, limits assumed); experiment: flow cytometry on CD33-expressing MOLM-13 cells, anti-human A647
# T3 construct: whole, on cells
# Description: (§2) A monospecific CD33 construct comprising an irrelevant second VHH domain instead of a γδTCR VHH domain (CD33×UT; cx12056) was also tested. Briefly, frozen PCMCs (previously treated with zoledronate to expand γδ T cells) were thawed and washed twice using 1×CTL thawing reagent in assay media. Cells were resuspended to 1×10\hat{ }6 cells/mL in FACs buffer and plated on a 96 well plate (100,000 cells/well). The test articles were added in 50 uL to each well at 4× the final starting concentration of 200 nM and titrated 1:4 across. 50 uL of FACS buffer was added for the final total volume of 200 uL. Cells were incubated with the test article at 4 C for 30 minutes, washed three times, and stained with Vd2-PE, CD3-BV785, and anti-human-A647 antibodies in FACS buffer for 30 minutes at 4 C. The cells were then washed 2× with FACS buffer, resuspended in 70 ul of FACS buffer and read on a Novocyte. All the molecules bound to CD33 expressing MOLM-13 (FIG. 8A) and MV4-11 (FIG. 8B) cells in a titration dependent manner. However, only the bispecific γδTCR×CD33 molecule bound to V 9Vδ2 T cells (FIG. 8C) in a titration dependent manner.
# [3] = target: T2, human γδ TCR (Vγ9Vδ2) on human γδ T …; experiment: flow cytometry on zoledronate-expanded human PBMC gated on Vδ2+ cells, anti-human A647
# Description: as §2
# T2 sequence (main, as listed by the source): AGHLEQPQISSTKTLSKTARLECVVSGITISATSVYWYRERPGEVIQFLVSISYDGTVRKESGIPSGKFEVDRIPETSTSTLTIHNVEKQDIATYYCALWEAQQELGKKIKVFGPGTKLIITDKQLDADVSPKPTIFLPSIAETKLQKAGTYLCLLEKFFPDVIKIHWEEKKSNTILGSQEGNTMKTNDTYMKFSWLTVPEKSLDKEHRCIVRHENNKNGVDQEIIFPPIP
# T3 sequence (P20138 18-364 limits assumed): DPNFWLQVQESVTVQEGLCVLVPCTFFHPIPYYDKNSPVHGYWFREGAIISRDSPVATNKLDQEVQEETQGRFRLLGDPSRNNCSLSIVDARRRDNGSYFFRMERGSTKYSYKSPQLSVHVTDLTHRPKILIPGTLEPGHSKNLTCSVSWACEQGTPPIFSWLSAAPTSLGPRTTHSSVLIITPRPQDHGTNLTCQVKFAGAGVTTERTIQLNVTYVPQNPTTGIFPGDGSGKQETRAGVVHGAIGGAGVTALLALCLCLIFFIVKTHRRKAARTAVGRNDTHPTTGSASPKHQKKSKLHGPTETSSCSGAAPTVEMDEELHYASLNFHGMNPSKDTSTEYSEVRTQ
Binder,EC50 (read off the curve) [1],EC50 (read off the curve) (CD20 on Raji cells),binding result [2],EC50 (read off the curve) [3]
"cx11498, γδTCR×CD20 bispecific polypeptide (1D7v9 VHH-Fc hole / anti-CD20 VHH-Fc knob) (bispecific antibody, V domains shown, also called γδ TCRxCD20; anti-CD20×Vγ9-1D7v9) V domain 1: EVQLLESGGGEVQPGGSLRLSCVASRGKISQYRMGWYRQAPGKELEWVAHISNTGDAAEYVDSVKGRFTISRDSTKNAVYLQMSSLRAEDTAVYKCNSVEDILAWGQGTLVTVKP V domain 2: QVQLQESGGGLVQPGGSLRLSCAASGRTFSMGWFRQAPRKEREFVAAITYSGGSPYYASSVRGRFTISRDNAKNTVYLQMNSLKPEDTAVYYCAARLTYGSTWSAENWGQGTQVTVKP",~2 nM,~5 nM,,
"cx12083, γδTCR×CD33 bispecific polypeptide (anti-CD33 VHH-Fc knob / 1D7v9 VHH-Fc hole) (bispecific antibody, V domains shown, also called γδ TCRxCD33; CD33×1D7v9) V domain 1: EVQLVESGGGEVQPGGSLRLSCAASRSSGIDVMGWYRQAPGKERELVAEISGVGDTNYAASLADRFTVSRDNAKNTVYLQMSSLRAEDTAVYYCNAHSFLDLVGAWGQGTLVTVKP V domain 2: EVQLLESGGGEVQPGGSLRLSCVASRGKISQYRMGWYRQAPGKELEWVAHISNTGDAAEYVDSVKGRFTISRDSTKNAVYLQMSSLRAEDTAVYKCNSVEDILAWGQGTLVTVKP",,,binds,~20 nM
"cx12056, CD33×UT (untargeted) monospecific CD33 construct (anti-CD33 VHH-Fc knob / 4GFTv1 VHH-Fc hole) (Fc fusion, also called CD33 x UT) chain 1: EVQLVESGGGEVQPGGSLRLSCAASRSSGIDVMGWYRQAPGKERELVAEISGVGDTNYAASLADRFTVSRDNAKNTVYLQMSSLRAEDTAVYYCNAHSFLDLVGAWGQGTLVTVKPGGGGDKTHTCPPCPAPGGPSVFLFPPKPKDTLMISRTPEVTCVVVDVSHEDPEVKFNWYVDGVEVHNAKTKPREEQYNSTYRVVSVLTVLHQDWLNGKEYKCKVSNKALPAPIEKTISKAKGQPREPQVYTLPPCRDELTKNQVSLWCLVKGFYPSDIAVEWESNGQPENNYKTTPPVLDSDGSFFLYSKLTVDKSRWQQGNVFSCSVMHEALHNHYTQKSLSLSPGK chain 2: EVQLVESGGGEVQPGGSLRLSCSAAPERAFSNYAMGWFRQAPGKGREFVAGITGSGRSQYYAESVKGRFTISRDNAKNTLYLQMSSLRAEDTAVYYCAARVVPVFSESTKGYVYWGQGTLVTVKPGGGGDKTHTCPPCPAPGGPSVFLFPPKPKDTLMISRTPEVTCVVVDVSHEDPEVKFNWYVDGVEVHNAKTKPREEQYNSTYRVVSVLTVLHQDWLNGKEYKCKVSNKALPAPIEKTISKAKGQPREPQVCTLPPSRDELTKNQVSLSCAVKGFYPSDIAVEWESNGQPENNYKTTPPVLDSDGSFFLVSKLTVDKSRWQQGNVFSCSVMHEALHNRYTQKSLSLSPGK",,,binds,
